Key:
VEGFR2 = VEGFR2 (Homo sapiens, UniProt P35968); conditions: cell-free assays; cited from earlier work
[1] = system: hiPSC chondrogenic pellets; assay: Biochemical analysis of cartilaginous matrix production (GAG/DNA) in hiPSC chondrogenic pellets; format: cell-based, human; conditions: 100 ng/ml WNT ligand + TGF-β3 vs TGF-β3 only
Protocol: Chondrogenic differentiation. Cells dissociated at the Cp stage were resuspended at 5×10^5 cells per mL in chondrogenic medium consisting of DMEM/F-12, 1% FBS, 1% ITS+, 55 μM β-mertcaptoethanol, 100 nM dexamethasone (DEX; Sigma-Aldrich, #D4902), 1% NEAA (Gibco, #11140050), 1% P/S, 10 ng ml^−1 human transforming growth factor-beta 3 (TGF-β3; R&D Systems, #243-B3-010), 50 μg ml^−1 L-ascorbic acid 2-phosphate (ascorbate; Sigma-Aldrich, #A8960), and 40 μg ml^−1 L-Proline (proline; Sigma-Aldrich, #P5607). Cells were then centrifuged for 5 min at 300×g to form a pellet. Chondrogenic pellets were cultured at 37° C. for up to the timepoints required for various experiments.
WNT-C59 and ML329 treatment for WNT and MITF inhibition. For WNT-C59 treatment for WNT inhibition during chondrogenesis, pellets were treated with either 10 ng ml^−1 TGF-β3 (control group) or a combination of 10 ng ml^−1 TGF-β3 and 1 μM WNT-C59 in a chondrogenic medium from d0 to d42 as appropriate. […]
Biochemical analysis of cartilaginous matrix production. […] GAG content, as calculated based on the standard curve, was normalized to double-stranded DNA content to obtain the GAG/DNA ratio.

[2] = system: CD146/CD166+ cells at the Cp stage; assay: FACS for progenitors at the Cp stage; format: cell-based, human; conditions: with BMP4, 1 μM WNT-C59 or 100 ng/ml WNT3A
Protocol: (§1) WNT ligands treatment during chondrogenesis. For WNT ligands treatment during chondrogenesis, pellets were treated with either 10 ng ml^−1 TGF-β3 (control group) or a combination of 10 ng ml^−1 TGF-β3 and 100 ng ml^−1 individual WNT ligand (WNT2B, WNT3A, WNT4, WNT5B, or WNT7B, all from R&D system) in chondrogenic medium from d0 to d42 as appropriate. For WNT ligands treatment during the Cp stage, cells were supplemented with either 20 ng ml^−1 BMP4 (R&D Systems, #314-BP-010) alone (control group), a combination of 20 ng ml^−1 BMP4 and 1 μM WNT-059, or a combination of 20 ng ml^−1 BMP4 and 100 ng ml^−1 WNT3A (R&D Systems, #5036-WN-010) in mesodermal differentiation medium from d7 to d12.
FACS for progenitors. […] Data were analyzed using FlowJo software (version 10.5.3).

[3] = system: hiPSC chondrogenic pellets; assay: RT-qPCR of pellets treated with WNT ligands; format: cell-based, human
Protocol: as §1
RT-qPCR. RNA of the pellets was isolated using the Total RNA Purification Kit according to the manufacture's protocol (Norgen Biotek, #37500). Reverse transcription of the RNA was performed using SuperScript VILO Master Mix (Thermo Fisher, #11755050). Fast SYBR Green Master Mix (Thermo Fisher, #4385614) was used for reverse transcription-quantitative polymerase chain reaction (RT-qPCR) according to the manufacturer's instructions on the QuantStudio 3 (Thermo Fisher). Gene expression was analyzed using the ΔΔCT method relative to undifferentiated hiPSCs with the reference gene TATA-box-binding protein (TBP).

[4] = system: hiPSC chondrogenic pellets; assay: Immunohistochemistry of collagens in pellets; format: cell-based, human; conditions: pellet culture
Protocol: as §1
Immunohistochemistry. Histologic sections (8 μm thick) of the pellets were rinsed with xylenes three times and rehydrated before labeling. Antigen retrieval was performed with 0.02% proteinase K for 3 min at 37° C. for COL2A1 and COL6A1 and with pepsin for 5 min at room temperature for COL1A1 and COL10A1 followed by peroxidase quench then serum blocking for 30 min at room temperature. […]

Chain of VEGFR2 (P35968 20-1356, species assumed): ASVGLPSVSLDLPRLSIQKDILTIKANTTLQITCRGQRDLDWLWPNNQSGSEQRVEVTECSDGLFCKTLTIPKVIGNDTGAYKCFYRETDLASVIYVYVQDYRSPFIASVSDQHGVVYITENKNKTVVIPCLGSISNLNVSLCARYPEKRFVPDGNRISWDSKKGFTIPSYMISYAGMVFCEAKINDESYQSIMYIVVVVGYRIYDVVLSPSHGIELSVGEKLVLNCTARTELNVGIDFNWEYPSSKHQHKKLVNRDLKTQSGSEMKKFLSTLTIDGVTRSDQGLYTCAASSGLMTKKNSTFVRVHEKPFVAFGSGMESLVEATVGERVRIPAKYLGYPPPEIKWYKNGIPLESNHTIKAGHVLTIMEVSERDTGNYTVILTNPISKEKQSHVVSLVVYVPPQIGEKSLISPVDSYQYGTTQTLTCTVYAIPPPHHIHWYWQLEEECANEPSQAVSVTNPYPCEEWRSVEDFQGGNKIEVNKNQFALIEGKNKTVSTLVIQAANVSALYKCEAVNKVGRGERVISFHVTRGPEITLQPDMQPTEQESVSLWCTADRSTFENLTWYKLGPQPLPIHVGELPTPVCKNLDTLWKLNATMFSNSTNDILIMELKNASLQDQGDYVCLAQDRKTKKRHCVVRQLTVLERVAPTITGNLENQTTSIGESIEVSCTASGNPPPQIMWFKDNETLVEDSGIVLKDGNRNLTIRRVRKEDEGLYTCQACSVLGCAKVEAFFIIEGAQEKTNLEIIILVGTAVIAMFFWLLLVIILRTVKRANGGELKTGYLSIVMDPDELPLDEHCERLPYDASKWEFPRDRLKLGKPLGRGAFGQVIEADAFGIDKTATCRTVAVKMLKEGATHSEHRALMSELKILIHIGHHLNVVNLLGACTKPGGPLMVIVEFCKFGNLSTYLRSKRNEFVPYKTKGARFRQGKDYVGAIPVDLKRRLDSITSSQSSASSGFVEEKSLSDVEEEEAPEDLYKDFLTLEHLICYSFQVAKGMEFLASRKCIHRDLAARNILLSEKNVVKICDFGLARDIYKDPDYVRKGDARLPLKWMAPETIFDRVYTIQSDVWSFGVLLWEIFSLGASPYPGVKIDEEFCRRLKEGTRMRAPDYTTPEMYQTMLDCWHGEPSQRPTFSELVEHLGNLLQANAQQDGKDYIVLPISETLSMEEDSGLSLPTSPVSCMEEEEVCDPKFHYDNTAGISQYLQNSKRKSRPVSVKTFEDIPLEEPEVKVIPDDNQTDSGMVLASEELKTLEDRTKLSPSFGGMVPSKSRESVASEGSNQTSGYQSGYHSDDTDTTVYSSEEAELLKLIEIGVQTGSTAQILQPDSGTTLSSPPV

CCN(CC)CCCCNc1ncc2cc(-c3cc(OC)cc(OC)c3)c(NC(=O)NC(C)(C)C)nc2n1 [PD173074]
IC50 (VEGFR2): 100 to 200 nM

B1: WNT3A: WNT ligand (R&D Systems) added at 100 ng/ml (protein, UniProt P56704 19-352, looked up)
Protein Wnt-3a: SYPIWWSLAVGPQYSSLGSQPILCASIPGLVPKQLRFCRNYVEIMPSVAEGIKIGIQECQHQFRGRRWNCTTVHDSLAIFGPVLDKATRESAFVHAIASAGVAFAVTRSCAEGTAAICGCSSRHQGSPGKGWKWGGCSEDIEFGGMVSREFADARENRPDARSAMNRHNNEAGRQAIASHMHLKCKCHGLSGSCEVKTCWWSQPDFRAIGDFLKDKYDSASEMVVEKHRESRGWVETLRPRYTYFKVPTERDLVYYEASPNFCEPNPETGSFGTRDRTCNVSSHGIDGCDLLCCGRGHNARAERRREKCRCVFHWCCYVSCQECTRVYDVHTCK
GAG/DNA ratio [1]: significantly decreased
percentage of CD146/CD166+ cells [2]: increased
COL2A1, COL1A1, and COL10A1 expression ([3]; 100 ng/ml WNT ligand + TGF-β3 vs TGF-β3 pellets): increased
COL1A1 and COL10A1 staining/production [4]: higher intensity

B2: WNT7B: WNT ligand (R&D system) added at 100 ng/ml (protein, UniProt P56706 25-349, looked up)
Protein Wnt-7b: ALSSVVALGANIICNKIPGLAPRQRAICQSRPDAIIVIGEGAQMGINECQYQFRFGRWNCSALGEKTVFGQELRVGSREAAFTYAITAAGVAHAVTAACSQGNLSNCGCDREKQGYYNQAEGWKWGGCSADVRYGIDFSRRFVDAREIKKNARRLMNLHNNEAGRKVLEDRMQLECKCHGVSGSCTTKTCWTTLPKFREVGHLLKEKYNAAVQVEVVRASRLRQPTFLRIKQLRSYQKPMETDLVYIEKSPNYCEEDAATGSVGTQGRLCNRTSPGADGCDTMCCGRGYNTHQYTKVWQCNCKFHWCCFVKCNTCSERTEVFTCK
chondrogenic markers (SOX9, ACAN, COL2A1) and osteogenic marker (COL1A1) ([3]; 100 ng/ml WNT ligand + TGF-β3 vs TGF-β3 only): significantly decreased
expression of MITF ([3]; 100 ng/ml WNT ligand, relative to TGF-β3 pellets): significantly lower

— patent US20230295571A1, “COMPOSITIONS AND METHODS FOR STEM CELL CHONDROGENESIS” (Washington University, priority 2020, published 2023)
